{
  "source": "patent US20220009993A1",
  "target": "CD19 on CD19+ cells (Nalm6 and Namalwa) (human) (UniProt P15391)",
  "sequence (P15391 20-556)": "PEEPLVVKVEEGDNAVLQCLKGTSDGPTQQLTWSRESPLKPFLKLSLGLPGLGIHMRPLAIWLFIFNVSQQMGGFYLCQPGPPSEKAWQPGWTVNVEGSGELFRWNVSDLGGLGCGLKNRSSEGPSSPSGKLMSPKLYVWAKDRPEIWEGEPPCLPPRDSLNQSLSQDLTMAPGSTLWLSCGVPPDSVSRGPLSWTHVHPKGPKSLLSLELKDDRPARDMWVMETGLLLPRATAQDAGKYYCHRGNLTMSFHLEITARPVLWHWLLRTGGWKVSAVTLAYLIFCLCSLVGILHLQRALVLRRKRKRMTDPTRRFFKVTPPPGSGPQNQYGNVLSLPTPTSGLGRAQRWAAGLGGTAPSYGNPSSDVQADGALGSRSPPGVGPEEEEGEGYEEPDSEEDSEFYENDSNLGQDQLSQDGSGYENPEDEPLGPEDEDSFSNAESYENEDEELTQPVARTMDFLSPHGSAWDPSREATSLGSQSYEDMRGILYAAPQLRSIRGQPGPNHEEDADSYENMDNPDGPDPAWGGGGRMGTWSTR",
  "assay": "cell-based or functional assay",
  "data": [
    {"substance": "ARI, a second-generation anti-CD19 CAR, expressed on primary T cells from the AWARI lentiviral vector (AW promoter, SEQ ID NO 1)", "values": [
      {"measurement": "specific lysis of CD19+ cells (Nalm6, Namalwa) after 48 h co-culture, relative to non-transduced T cells", "result": "70 to 80", "unit": "%"}
    ]}
  ]
}
